Publication PMC6112861 (Nature, 2018)

B1: Wbp1 (natural protein, S. cerevisiae, UniProt P33767 21-430, looked up)
chain: TQTSRTLVLYDQSTEPLEEYSVYLKDLEQRNYKLEYLDINSTSTTVDLYDKEQRLFDNIIVFPTKGGKNLARQIPVKQLIKFFENEGNILCMSSPGAVPNTIRLFLNELGIYPSPKGHVIRDYFSPSSEELVVSSNHLLNKYVYNARKSEDFVFGESSAALLENREQIVPILNAPRTSFTESKGKCNSWTSGSQGFLVVGFQNLNNARLVWIGSSDFLKNKNQDSNQEFAKELLKWTFNEKSVIKSVHAVHSHADGTSYDEEPYKIKDKVIYSVGFSEWNGEEWLPHIADDIQFELRQVDPYYRLTLSPSGNDSETQYYTTGEFILPDRHGVFTFLTDYRKIGLSFTTDKDVKAIRHLANDEYPRSWEISNSWVYISAICGVIVAWIFFVVSFVTTSSVGKKLETFKKTN
modifications: N-glycan at Asn60
B2: Swp1 (natural protein, S. cerevisiae, UniProt Q02795 20-286, looked up)
chain: YVAQDVHVSFPSTAGKSRVMIGKVEPRIGIDETVPTTITVEDPNEVIQVNFAIESTNKPFQNTLLIGLPNKNLEMAFEPEIKDNGKLSMYKYRIDLAKLDAALLQEASRSPEPIKATLILASSTAKPKENLFREILQLNLNFDVDHSDSSLVDKFGIKPEIHHIFHAEPKRVAKPIAVIFVLIIFITILSLIVTWLNSCAAAFNNIPTGVTAVYFLGFIATIVGFEVIFARYYLGTSIFETLFSSLYLGAPGLLTSTKFLRSFGQTI
B6: Ost1 (natural protein, S. cerevisiae, UniProt P41543 23-476, looked up)
chain: AQYEPPATWENVDYKRTIDVSNAYISETIEITIKNIASEPATEYFTAFESGIFSKVSFFSAYFTNEATFLNSQLLANSTTAPGDDGESEIRYGIIQFPNAISPQEEVSLVIKSFYNTVGIPYPEHVGMSEEQHLLWETNRLPLSAYDTKKASFTLIGSSSFEEYHPPNDESLLGKANGNSFEFGPWEDIPRFSSNETLAIVYSHNAPLNQVVNLRRDIWLSHWASTIQFEEYYELTNKAAKLSKGFSRLELMKQIQTQNMRQTHFVTVLDMLLPEGATDHYFTDLVGLVSTSHAERDHFFIRPRFPIFGGWNYNFTVGWTNKLSDFLHVSSGSDEKFVASIPILNGPPDTVYDNVELSVFLPEGAEIFDIDSPVPFTNVSIETQKSYFDLNKGHVKLTFSYRNLISQVANGQVLIKYDYPKSSFFKKPLSIACYIFTALMGVFVLKTLNMNVTN
modifications: N-glycan at Asn336

Experiments:
Test in all cases: cryo-EM structure
[1] = target: T1, Stt3 (S. cerevisiae, UniProt P39007 1-718, N-glycan at Asn539)
T1 sequence (looked up): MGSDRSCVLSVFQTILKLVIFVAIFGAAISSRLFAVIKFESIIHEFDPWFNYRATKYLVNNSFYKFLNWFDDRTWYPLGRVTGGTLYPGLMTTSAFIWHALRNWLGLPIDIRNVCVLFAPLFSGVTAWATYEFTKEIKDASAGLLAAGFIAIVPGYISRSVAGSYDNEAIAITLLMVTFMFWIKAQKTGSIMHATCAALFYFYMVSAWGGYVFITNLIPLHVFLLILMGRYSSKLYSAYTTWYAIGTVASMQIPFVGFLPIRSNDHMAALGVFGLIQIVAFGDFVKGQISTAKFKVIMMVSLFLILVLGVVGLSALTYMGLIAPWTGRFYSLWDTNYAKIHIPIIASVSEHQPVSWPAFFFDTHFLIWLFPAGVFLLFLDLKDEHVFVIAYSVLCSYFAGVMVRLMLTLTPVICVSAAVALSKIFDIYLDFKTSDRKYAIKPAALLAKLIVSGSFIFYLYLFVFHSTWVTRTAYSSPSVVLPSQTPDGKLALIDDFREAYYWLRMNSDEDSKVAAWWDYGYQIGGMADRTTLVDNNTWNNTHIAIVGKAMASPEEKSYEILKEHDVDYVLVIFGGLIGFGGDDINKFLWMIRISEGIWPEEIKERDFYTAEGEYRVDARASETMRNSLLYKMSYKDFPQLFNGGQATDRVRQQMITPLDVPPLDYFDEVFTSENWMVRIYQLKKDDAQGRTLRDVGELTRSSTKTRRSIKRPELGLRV

[2] = target: B1
[3] = target: B6
[4] = target: B2

**Q.** Does B1 bind [1]?
**A.** binds

**Q.** Does MISDEQLNSLAITFGIVMMTLIVIYHAVDSTMSPKN (natural protein, S. cerevisiae) [Ost4-FLAG] bind [1]?
**A.** binds

**Q.** Does B2 bind [2]?
**A.** binds

**Q.** Does B2 bind [1]?
**A.** binds

B3: Ost5 (natural protein, S. cerevisiae, UniProt Q92316 1-86, looked up)
chain: MTYEQLYKEFHSSKSFQPFIHLDTQPKFAICGLIVTLAVLSSALFAVGSKSSYIKKLFFYTILSVIGSLFAGLTTVFASNSFGVYV
**Q.** Does B3 bind [3]?
**A.** binds

B4: Ost2 (natural protein, S. cerevisiae, UniProt P46964 1-130, looked up)
chain: MAKAPKANTPKVTSTSSAVLTDFQETFKTSKRAYFAQIEKYPKLKLIDTFCFFLVLLGVIQCTFIILIRDNFPFNAFLAGFIICVGQFVLLMSLRLQLCNSFPGISKNRAFAEFIVASLILHFVCLHFIN
**Q.** Does B4 bind [4]?
**A.** binds

**Q.** Does B4 bind [2]?
**A.** binds

**Q.** Does B4 bind [1]?
**A.** binds

B5: Ost3 (natural protein, S. cerevisiae, UniProt P48439 23-350, looked up)
chain: MSSNRLLKLANKSPKKIIPLKDSSFENILAPPHENAYIVALFTATAPEIGCSLCLELESEYDTIVASWFDDHPDAKSSNSDTSIFFTKVNLEDPSKTIPKAFQFFQLNNVPRLFIFKPNSPSILDHSVISISTDTGSERMKQIIQAIKQFSQVNDFSLHLPMDWTPIITSTIITFITVLLFKKQSKLMFSIISSRIIWATLSTFFIICMISAYMFNQIRNTQLAGVGPKGEVMYFLPNEFQHQFAIETQVMVLIYGTLAALVVVLVKGIQFLRSHLYPETKKAYFIDAILASFCALFIYVFFAALTTVFTIKSPAYPFPLLRLSAPFK
**Q.** Does B5 bind [1]?
**A.** binds

**Q.** Does B6 bind [1]?
**A.** binds
